Our source for the stoichiometry N values is publication PMC9643530.

Experiment [1] has as its target recombinant secreted NS1 (sNS1) of DENV2 clinical strain PVP94/07 with C-terminal His6-tag (dengue virus 2 (clinical strain PVP94/07)). Briefly: cryo-EM structure; recombinant sNS1 alone, 0.25 mg/mL; 2D and 3D classification (Relion, CryoSPARC); also imaged with 0.05% DDM.
For experiment [2] the target is unchanged. As to the kind of experiment: cross-linking.
For experiment [3] the target is unchanged. Briefly: AUC; sedimentation velocity, 72,446 x g, 20 °C, 1 mg/ml protein in NTE buffer, SEDFIT continuous c(s) distribution.
The target is the same in experiment [4]. As to the kind of experiment: cryo-EM structure; recombinant sNS1 complexed with Fab 5E3, molar ratio 1:1.2, final sNS1 0.25 mg/mL.
Experiment [5] concerns the target sNS1 from the supernatant of DENV2 PVP94/07 infected cells (dengue virus 2 (clinical strain PVP94/07)). Briefly: cross-linking.
The target is the same in experiment [6]. As to the kind of experiment: cross-linking. This is another data set of the same source.

Several values for one entry are separate records, joined by “and”; a condition that tells them apart may be missing. Identical values can stand only once. Like-named read-outs stand apart in the source and are kept apart here.

Consider “recombinant secreted NS1 (sNS1) of DENV2 clinical strain PVP94/07 with C-terminal His6-tag (natural protein)”, for which the stoichiometry N in experiment [1] is 6 and 4; in experiment [2], 6 and 4 and 2; in experiment [3] it was 4 and 6; in experiment [4] it was 2 and 4.
As for “sNS1 from the supernatant of DENV2 PVP94/07 infected cells (natural protein)”, the stoichiometry N was 6 in experiment [5]; 4 and 2 in experiment [6].
